Target: the molecule itself
Assay: cryo-EM structure

B1: ArnC from Salmonella enterica (ArnCSe) (enzyme, UniProt O52324 1-327, looked up)
chain: MFDAAPIKKVSVVIPVYNEQESLPELIRRTTTACESLGKAWEILLIDDGSSDSSAELMVKASQEADSHIISILLNRNYGQHAAIMAGFSHVSGDLIITLDADLQNPPEEIPRLVAKADEGFDVVGTVRQNRQDSLFRKSASKIINLLIQRTTGKAMGDYGCMLRAYRRPIIDTMLRCHERSTFIPILANIFARRATEIPVHHAEREFGDSKYSFMRLINLMYDLVTCLTTTPLRLLSLLGSVIAIGGFSLSVLLIVLRLALGPQWAAEGVFMLFAVLFTFIGAQFIGMGLLGEYIGRIYNDVRARPRYFVQQVIYPESTPFTEESHQ
  stoichiometry N: 4

From PMC11838356 (bioRxiv, 2025)
